In US20210284709A1 (JUNO THERAPEUTICS, published 2021):

B1: modified version of TCR 5 (TCR, V domains shown)
V domain 1: AQKITQTQPGMFVQEKEAVTLDCTYDTSDQSYGLFWYKQPSSGEMIFLIYQGSYDEQNATEGRYSLNFQKARKSANLVISASQLGDSAMYFCAMREGTGTSYGKLTFGQGTILTVHP
V domain 2: DVKVTQSSRYLVKRTGEKVFLECVQDMDHENMFWYRQDPGLGLRLIYFSYDVKMKEKGDIPEGYSVSREKKERFSLILESASTNQTSMYLCASSPWGETHQPQHFGDGTRLSILE
B2: modified version of TCR 4 (TCR)
TCR alpha: DAKTTQPNSMESNEEEPVHLPCNHSTISGTDYIHWYRQLPSQGPEYVIHGLTSNVNNRMASLAIAEDRKSSTLILHRATLRDAAVYYCILLVIRGTSYGKLTFGQGTILTVHPNIQNPDPAVYQLRDSKSSDKSVCLFTDFDSQTNVSQSKDSDVYITDKCVLDMRSMDFKSNSAVAWSNKSDFACANAFNNSIIPEDTFFPSPESSCDVKLVEKSFETDTNLNFQNLSVIGFRILLLKVAGFNLLMTLRLWSS
TCR beta: DTGVSQDPRHKITKRGQNVTFRCDPISEHNRLYWYRQTLGQGPEFLTYFQNEAQLEKSRLLSDRFSAERPKGSFSTLEIQRTEQGDSAMYLCASSPGGGNTEAFFGQGTRLTVVEDLNKVFPPEVAVFEPSEAEISHTQKATLVCLATGFFPDHVELSWWVNGKEVHSGVCTDPQPLKEQPALNDSRYCLSSRLRVSATFWQNPRNHFRCQVQFYGLSENDEWTQDRAKPVTQIVSAEAWGRADCGFTSVSYQQGVLSATILYEILLGKATLYAVLVSALVLMAMVKRKDF
B3: modified version of TCR 3 (TCR)
TCR alpha: AQKITQTQPGMFVQEKEAVTLDCTYDTSDQSYGLFWYKQPSSGEMIFLIYQGSYDEQNATEGRYSLNFQKARKSANLVISASQLGDSAMYFCAMREGRGFKTIFGAGTRLFVKANIQKPDPAVYQLRDSKSSDKSVCLFTDFDSQTNVSQSKDSDVYITDKCVLDMRSMDFKSNSAVAWSNKSDFACANAFNNSIIPADTFFPSPESSCDVKLVEKSFETDTNLNFQNLSVIGFRILLLKVAGFNLLMTLRLWSS
TCR beta: GAGVSQSPRYKVAKRGQDVALRCDPISGHVSLFWYQQALGQGPEFLTYFQNEAQLDKSGLPSDRFFAERPEGSVSTLKIQRTQQEDSAVYLCASSHLAGFTGELFFGEGSRLTVLEDLKNVFPPEVAVFEPSEAEISHTQKATLVCLATGFYPDHVELSWWVNGKEVHSGVCTDPQPLKEQPALNDSRYCLSSRLRVSATFWQNPRNHFRCQVQFYGLSENDEWTQDRAKPVTQIVSAEAWGRADCGFTSESYQQGVLSATILYEILLGKATLYAVLVSALVLMAMVKRKDSRG
B4: modified version of TCR 8 (TCR, V domains shown)
V domain 1: KQEVTQIPAALSVPEGENLVLNCSFTDSAIYNLQWFRQDPGKGLTSLLLIQSSQREQTSGRLNASLDKSSGRSTLYIAASQPGDSATYLCAVRPLGNTPLVFGKGTRLSVIA
V domain 2: KVTQSSRYLVKRTGEKVFLECVQDMDHENMFWYRQDPGLGLRLIYFSYDVKMKEKGDIPEGYSVSREKKERFSLILESASTNQTSMYLCASSLWGASTDTQYFGPGTRLTVLE
B5: modified version of TCR 13 (TCR)
TCR alpha: AQSVTQLDSHVSVSEGTPVLLRCNYSSSYSPSLFWYVQHPNKGLQLLLKYTSAATLVKGINGFEAEFKKSETSFHLTKPSAHMSDAAEYFCVVRGGKLIFGQGTELSVKPNIQNPDPAVYQLRDSKSSDKSVCLFTDFDSQTNVSQSKDSDVYITDKCVLDMRSMDFKSNSAVAWSNKSDFACANAFNNSIIPEDTFFPSPESSCDVKLVEKSFETDTNLNFQNLSVIGFRILLLKVAGFNLLMTLRLWSS
TCR beta: GAGVSQSPRYKVAKRGQDVALRCDPISGHVSLFWYQQALGQGPEFLTYFQNEAQLDKSGLPSDRFFAERPEGSVSTLKIQRTQQEDSAVYLCASSPTGTERELFFGEGSRLTVLEDLKNVFPPEVAVFEPSEAEISHTQKATLVCLATGFYPDHVELSWWVNGKEVHSGVCTDPQPLKEQPALNDSRYCLSSRLRVSATFWQNPRNHFRCQVQFYGLSENDEWTQDRAKPVTQIVSAEAWGRADCGFTSESYQQGVLSATILYEILLGKATLYAVLVSALVLMAMVKRKDSRG
B6: modified version of TCR 14 (TCR)
TCR alpha: ILNVEQSPQSLHVQEGDSTNFTCSFPSSNFYALHWYRWETAKSPEALFVMTLNGDEKKKGRISATLNTKEGYSYLYIKGSQPEDSATYLCASQTGANNLFFGTGTRLTVIPYIQNPDPAVYQLRDSKSSDKSVCLFTDFDSQTNVSQSKDSDVYITDKCVLDMRSMDFKSNSAVAWSNKSDFACANAFNNSIIPEDTFFPSPESSCDVKLVEKSFETDTNLNFQNLSVIGFRILLLKVAGFNLLMTLRLWSS
TCR beta: DVKVTQSSRYLVKRTGEKVFLECVQDMDHENMFWYRQDPGLGLRLIYFSYDVKMKEKGDIPEGYSVSREKKERFSLILESASTNQTSMYLCASTFWGQRRTEAFFGQGTRLTVVEDLNKVFPPEVAVFEPSEAEISHTQKATLVCLATGFFPDHVELSWWVNGKEVHSGVCTDPQPLKEQPALNDSRYCLSSRLRVSATFWQNPRNHFRCQVQFYGLSENDEWTQDRAKPVTQIVSAEAWGRADCGFTSVSYQQGVLSATILYEILLGKATLYAVLVSALVLMAMVKRKDF
B7: TCR 17 (codon-optimized, cysteine-modified) (TCR, V domains shown)
V domain 1: AQKITQTQPGMFVQEKEAVTLDCTYDTSDPSYGLFWYKQPSSGEMIFLIYQGSYDQQNATEGRYSLNFQKARKSANLVISASQLGDSAMYFCAMREGRGDKIIFGKGTRLHILP
V domain 2: DVKVTQSSRYLVKRTGEKVFLECVQDMDHENMFWYRQDPGLGLRLIYFSYDVKMKEKGDIPEGYSVSREKKERFSLILESASTNQTSMYLCASSLWGRSNQPQHFGDGTRLSILE
B8: TCR 18 (codon-optimized, cysteine-modified) (TCR, V domains shown)
V domain 1: KQEVTQIPAALSVPEGENLVLNCSFTDSAIYNLQWFRQDPGKGLTSLLLIQSSQREQTSGRLNASLDKSSGRSTLYIAASQPGDSATYLCAEGNAGGTSYGKLTFGQGTILTVHP
V domain 2: DVKVTQSSRYLVKRTGEKVFLECVQDMDHENMFWYRQDPGLGLRLIYFSYDVKMKEKGDIPEGYSVSREKKERFSLILESASTNQTSMYLCASSFWGRSNSPLHFGNGTRLTVTE
B9: TCR 21 (codon-optimized, cysteine-modified) (TCR, V domains shown)
V domain 1: AQKITQTQPGMFVQEKEAVTLDCTYDTSDQSYGLFWYKQPSSGEMIFLIYQGSYDEQNATEGRYSLNFQKARKSANLVISASQLGDSAMYFCAMREGRVTGGGNKLTFGTGTQLKVEL
V domain 2: NAGVTQTPKFQVLKTGQSMTLQCAQDMNHNSMYWYRQDPGMGLRLIYYSASEGTTDKGEVPNGYNVSRLNKREFSLRLESAAPSQTSVYFCASRPWGNQNTEAFFGQGTRLTVVE
B10: TCR 22 (codon-optimized, cysteine-modified) (TCR, V domains shown)
V domain 1: GQNIDQPTEMTATEGAIVQINCTYQTSGFNGLFWYQQHAGEAPTFLSYNVLDGLEEKGRFSSFLSRSKGYSYLLLKELQMKDSASYLCAVRARMDSNYQLIWGAGTKLIIKP
V domain 2: DAGVTQSPTHLIKTRGQHVTLRCSPISGHKSVSWYQQVLGQGPQFIFQYYEKEERGRGNFPDRFSARQFPNYSSELNVNALLLGDSALYLCASSRTENYGYTFGSGTRLTVVE
B11: TCR 23 (codon-optimized, cysteine-modified) (TCR, V domains shown)
V domain 1: AQKITQTQPGMFVQEKEAVTLDCTYDTSDQSYGLFWYKQPSSGEMIFLIYQGSYDEQNATEGRYSLNFQKARKSANLVISASQLGDSAMYFCAMSPPGGSARQLTFGSGTQLTVLP
V domain 2: DVKVTQSSRYLVKRTGEKVFLECVQDMDHENMFWYRQDPGLGLRLIYFSYDVKMKEKGDIPEGYSVSREKKERFSLILESASTNQTSMYLCASSPWGQSNQPQHFGDGTRLSILE
B12: TCR 24 (codon-optimized, cysteine-modified) (TCR, V domains shown)
V domain 1: AQKITQTQPGMFVQEKEAVTLDCTYDTSDQSYGLFWYKQPSSGEMIFLIYQGSYDEQNATEGRYSLNFQKARKSANLVISASQLGDSAMYFCAMREGRGDSWGKLQFGAGTQVVVTP
V domain 2: DVKVTQSSRYLVKRTGEKVFLECVQDMDHENMFWYRQDPGLGLRLIYFSYDVKMKEKGDIPEGYSVSREKKERFSLILESASTNQTSMYLCASSPFGRGSYEQYFGPGTRLTVTE
B13: TCR 27 (codon-optimized, cysteine-modified) (TCR, V domains shown)
V domain 1: DAKTTQPNSMESNEEEPVHLPCNHSTISGTDYIHWYRQLPSQGPEYVIHGLTSNVNNRMASLAIAEDRKSSTLILHRATLRDAAVYYCILRVPPQSGGYQKVTFGTGTKLQVIP
V domain 2: NAGVTQTPKFQVLKTGQSMTLQCAQDMNHNSMYWYRQDPGMGLRLIYYSASEGTTDKGEVPNGYNVSRLNKREFSLRLESAAPSQTSVYFCASSEFGSLNEKLFFGSGTQLSVLE
B14: TCR 29 (codon-optimized, cysteine-modified) (TCR, V domains shown)
V domain 1: AQKITQTQPGMFVQEKEAVTLDCTYDTSDQSYGLFWYKQPSSGEMIFLIYQGSYDEQNATEGRYSLNFQKARKSANLVISASQLGDSAMYFCAMRLNTGTASKLTFGTGTRLQVTL
V domain 2: DGGITQSPKYLFRKEGQNVTLSCEQNLNHDAMYWYRQDPGQGLRLIYYSQIVNDFQKGDIAEGYSVSREKKESFPLTVTSAQKNPTAFYLCASSPWGRATNEQFFGPGTRLTVLE
B15: TCR 30 (codon-optimized, cysteine-modified) (TCR, V domains shown)
V domain 1: DAKTTQPPSMDCAEGRAANLPCNHSTISGNEYVYWYRQIHSQGPQYIIHGLKNNETNEMASLIITEDRKSSTLILPHATLRDTAVYYCIVRGTSVLQGNEKLTFGTGTRLTIIP
V domain 2: EPEVTQTPSHQVTQMGQEVILRCVPISNHLYFYWYRQILGQKVEFLVSFYNNEISEKSEIFDDQFSVERPDGSNFTLKIRSTKLEDSAMYFCASSRQPSSGNTIYFGEGSWLTVVE

Key:
[1] = molecular target: HLA-A2/E7(11-19) tetramer (human; HPV 16); test: cell-based or functional assay
[2] = molecular target: HLA-A2/E6(29-38) tetramer (human; HPV 16); test: cell-based or functional assay
[3] = molecular target: T1, HLA-A2/E6(29-38) tetramer (human; HPV 16); test: flow cytometry, tetramer + anti-CD8; transfected Jurkat-derived cells, CD8+ cells
T1 construct: also called E6(29-38) peptide-MHC tetramer; E6 tet
Experimental: (§1) For transfection, the CD4+ and CD4+/CD8+ cell mixtures were transiently transfected with TCR-encoding plasmids and 48 hours after transfection, cells were assessed by flow cytometry for (1) binding of the target peptide in the context of an MHC molecule (HLA:A02:01) by staining with an E6(29-38) peptide- or an E7(11-19) peptide-MHC tetramer reagent, and/or (2) CD8+ independent binding of the target by co-staining the tetramer-labeled cells with an anti-CD8 antibody.

[4] = molecular target: T1, HLA-A2/E6(29-38) tetramer; test: flow cytometry, tetramer + anti-CD8; transfected mix of CD8- and CD8+ Jurkat-derived cells;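 note: CD4+ and CD4+/CD8+ cell mixtures transiently given TCR plasmids, analysed 48 h post-transfection by flow cytometry with E6(29-38)–HLA-A*02:01 tetramer plus anti-CD8 antibody co-stain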
Experimental: as §1

Binder | % CD8+/IC IFNγ+ [1] [%] | % CD8+/IC IFNγ+ [2] [%] | % cells E6 tet+/CD8+ quadrant [3] [%] | % cells E6 tet+/CD8- quadrant [3] [%] | % cells E6 tet+/CD8+ quadrant [4] [%] | % cells E6 tet+/CD8- quadrant [4] [%]
B1 | 7.22 | 43.7 |  |  |  | 
B2 | 2.5 | 94.2 |  |  |  | 
B3 | 2.51 | 95.1 |  |  |  | 
B4 | 11.4 | 95 |  |  |  | 
B5 |  |  | 38.6 | 0.064 |  | 
B6 |  |  | 38.4 | 0.04 |  | 
B7 |  |  | 34.7 | 0.17 | 36.2 | 21.3
B8 |  |  | 50.4 | 0.045 | 23.3 | 3.61
B9 |  |  | 51.6 | 0.22 | 28.8 | 32.7
B10 |  |  | 51.2 | 0.14 |  | 
B11 |  |  | 43.6 | 0.18 | 52.5 | 22.5
B12 |  |  | 29.1 | 0.13 | 55 | 23.5
B13 |  |  | 24.5 | 0.02 | 15.8 | 3.5
B14 |  |  |  |  | 35.6 | 44.5
B15 |  |  |  |  | 31 | 0.74
